Source: the supplement of paper PMC9233669
Variants at the floor of the assay were thinned out.

Key:
biotinyl-Trp-oxazolone = experiment: self-aminoacylation, catalytic enhancement (BWO) (fold over background); higher = more active; k-Seq, kA / k0A0; sequences stand for … in GGGAAUGGAUCCACAUCUACGAAUUC…UUCACUGCAGACUUGACGAAGCUG
Summary of the method: (§1)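 Mutagenized RNA pools with a 21-nt variable region (0.43 μM) were reacted with each biotinyl-aminoacyl-oxazolone at 2–1250 μM for 90 minutes at room temperature, in 50 μL HEPES/NaCl/KCl/MgCl2/CaCl2 buffer containing 5% acetonitrile at pH 6.9–7.0. RNA captured on streptavidin was quantified by triplicate qPCR and by Illumina sequencing. The fraction reacted for each sequence was fit to a pseudo-first-order model with bootstrapping, and catalytic enhancement is the median kA divided by the uncatalyzed rate, taken as the low-activity peak of a bimodal Gaussian fit.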

biotinyl-Ile-oxazolone = experiment: self-aminoacylation, catalytic enhancement (BIO) (fold over background); higher = more active; k-Seq, kA / k0A0; sequences stand for … in GGGAAUGGAUCCACAUCUACGAAUUC…UUCACUGCAGACUUGACGAAGCUG
Summary of the method: as §1

biotinyl-Val-oxazolone = experiment: self-aminoacylation, catalytic enhancement (BVO) (fold over background); higher = more active; k-Seq, kA / k0A0; sequences stand for … in GGGAAUGGAUCCACAUCUACGAAUUC…UUCACUGCAGACUUGACGAAGCUG
Summary of the method: as §1

biotinyl-Met-oxazolone = experiment: self-aminoacylation, catalytic enhancement (BMO) (fold over background); higher = more active; k-Seq, kA / k0A0; sequences stand for … in GGGAAUGGAUCCACAUCUACGAAUUC…UUCACUGCAGACUUGACGAAGCUG
Summary of the method: as §1

biotinyl-Leu-oxazolone = experiment: self-aminoacylation, catalytic enhancement (BLO) (fold over background); higher = more active; k-Seq, kA / k0A0; sequences stand for … in GGGAAUGGAUCCACAUCUACGAAUUC…UUCACUGCAGACUUGACGAAGCUG
Summary of the method: as §1

biotinyl-Phe-oxazolone = experiment: self-aminoacylation, catalytic enhancement (BFO) (fold over background); higher = more active; k-Seq, kA / k0A0; sequences stand for … in GGGAAUGGAUCCACAUCUACGAAUUC…UUCACUGCAGACUUGACGAAGCUG
Summary of the method: as §1

Sequence | self-aminoacylation (biotinyl-Trp-oxazolone) | self-aminoacylation (biotinyl-Ile-oxazolone) | self-aminoacylation (biotinyl-Val-oxazolone) | self-aminoacylation (biotinyl-Met-oxazolone) | self-aminoacylation (biotinyl-Leu-oxazolone) | self-aminoacylation (biotinyl-Phe-oxazolone)
ACUCACCUAGGGCAUCGGGUG [Fam2.2 aminoacylation ribozyme variant] | 6.35 | 4.42 | 3.83 | 3.92 | 5.19 | 18.2
AUUACCCUGGUCAUCGAUUGC [Fam2.1 aminoacylation ribozyme variant] | 0.663 | 1.15 | 0.926 | 0.757 | 0.84 | 0.81
AUUACCUUGGUCAUAGAGUGA [Fam2.1 aminoacylation ribozyme variant] | 9.04 | 3.58 | 3.69 | 6.82 | 7.24 | 25.4
CCACACUUCGAGCAAACGGUC [Fam1B.1 aminoacylation ribozyme variant] | 0.57 | 0.678 | 0.655 | 0.663 | 0.632 | 0.648
AGUCACCUAGGUAAUCGGGUG [Fam2.2 aminoacylation ribozyme variant] | 3.64 | 3.27 | 2.75 | 3.4 | 3.37 | 25.4
CUACUUCAAACAAUCCGUGUG [Fam1A.1 aminoacylation ribozyme variant] | 2.52 | 1.99 | 1.88 | 2.86 | 3.84 | 7.45
CUACUUCAAACGAUCGGUCUG [Fam1A.1 aminoacylation ribozyme variant] | 1.31 | 0.65 | 0.763 | 0.677 | 0.68 | 1.42
CCACACUUCAAGCGAUCGGUC [Fam1B.1 aminoacylation ribozyme variant] | 1.51 | 0.887 | 1.02 | 0.743 | 0.815 | 1.72
AUAACCCUGGGCAUCGAGUGA [Fam2.1 aminoacylation ribozyme variant] | 6.57 | 3 | 2.59 | 5.93 | 6 | 33.7
GGUCACCUAGGUCAUCGGGUG [Fam2.2 aminoacylation ribozyme variant] | 6.88 | 4.07 | 5.01 | 4.37 | 3.98 | 30.3
AUUACCCUGGUCAUCGAGGGA [Fam2.1 aminoacylation ribozyme variant] | 5.46 | 2.71 | 2.99 | 5.93 | 5.66 | 9.56
AUUCACAUAGGUCAUCGGGCG [Fam2.2 aminoacylation ribozyme variant] | 2.3 | 2.05 | 2.33 | 2.5 | 3.11 | 6.68
AAGCUUGCUAAUAGUCGCGAG [Fam3.1 aminoacylation ribozyme variant] | 3.85 | 2.66 | 1.9 | 3.36 | 2.66 | 26.9
CUCCUUCAAACUAUCGGUCUG [Fam1A.1 aminoacylation ribozyme variant] | 1.5 | 1.14 | 1.15 | 1.17 | 0.895 | 1.92
AUAACCCUGUUCAUCGAGUGA [Fam2.1 aminoacylation ribozyme variant] | 4.29 | 2.21 | 2.18 | 3.8 | 3.97 | 12.6
CCACACUUCAAUCAAUAGGUC [Fam1B.1 aminoacylation ribozyme variant] | 0.511 | 0.573 | 0.646 | 0.569 | 0.517 | 1.11
AAGUUUGCUGGUAGUCGCAAG [Fam3.1 aminoacylation ribozyme variant] | 0.864 | 0.97 | 0.86 | 0.778 | 0.96 | 1.12
CCAGACUUCAAGCAAUCGGUG [Fam1B.1 aminoacylation ribozyme variant] | 7.25 | 4.56 | 4.1 | 6.21 | 8.51 | 29.2
AUUCAUCUAGGUCACCGGGUG [Fam2.2 aminoacylation ribozyme variant] | 5.32 | 3.85 | 3.34 | 5.35 | 6.82 | 36.8
UCACACUUCAAGCAAUCGGUA [Fam1B.1 aminoacylation ribozyme variant] | 1.49 | 0.993 | 1.12 | 1.1 | 1.04 | 1.13
AUUAACCUGGUCCUCGAGUGA [Fam2.1 aminoacylation ribozyme variant] | 4.11 | 2.3 |  | 3.92 | 4.42 | 19.7
CCACCCUUCAAGCAAUCGGGC [Fam1B.1 aminoacylation ribozyme variant] | 2.65 | 2.06 | 3.02 |  |  | 15.4

Sequence | self-aminoacylation (biotinyl-Trp-oxazolone) | self-aminoacylation (biotinyl-Ile-oxazolone) | self-aminoacylation (biotinyl-Val-oxazolone) | self-aminoacylation (biotinyl-Met-oxazolone) | self-aminoacylation (biotinyl-Leu-oxazolone) | self-aminoacylation (biotinyl-Phe-oxazolone)
AUUCACCUAAGUCAUUGGGUG [Fam2.2 aminoacylation ribozyme variant] | 2.6 | 2.31 |  | 3.48 | 3.65 | 20.5
CUACUUCAAACACUCGGGCUG [Fam1A.1 aminoacylation ribozyme variant] |  | 2.18 | 2.2 |  | 2.06 | 
ACGCUUGCUAAUAGUCGCAAG [Fam3.1 aminoacylation ribozyme variant] | 2.88 | 2.28 |  | 2.29 |  | 5.67
GCACACUUCAAGCAACCGGUC [Fam1B.1 aminoacylation ribozyme variant] | 4.35 | 2.31 | 2.43 |  | 2.46 | 2.92
AACUAUGCUAAUAGUCGCAAG [Fam3.1 aminoacylation ribozyme variant] |  | 2.41 |  |  | 2.16 | 2.45
CCACACUUCAUGCAAUCGGCC [Fam1B.1 aminoacylation ribozyme variant] |  | 2.44 | 2.8 | 2.9 | 2.72 | 14.2
AUUUACCUAGUUCAUCGGGUG [Fam2.2 aminoacylation ribozyme variant] | 2.25 | 2.13 |  | 2.61 | 3.25 | 15.2
AUUCACCUAGGUCAUCGAGUU [Fam2.2 aminoacylation ribozyme variant] |  | 2.69 | 2.25 | 3.3 | 4.79 | 7.47
AAGCUUGCUACUAGUCGCAAG [Fam3.1 aminoacylation ribozyme variant] | 2.23 | 2.45 |  | 2.37 | 2.03 | 
AAAUUUGCUAAGAGUCGCAAG [Fam3.1 aminoacylation ribozyme variant] | 2.51 | 2.05 |  |  |  | 2.61
AAGCUUGCUGAUAGUCGCAAG [Fam3.1 aminoacylation ribozyme variant] | 3.03 | 2.19 | 2.45 | 2.4 |  | 4.23
AUUCACUUAGGUCAUCGGGUA [Fam2.2 aminoacylation ribozyme variant] |  | 2.29 | 2.15 | 2.38 |  | 
AUUCACAUAGGUCAUCUGGUG [Fam2.2 aminoacylation ribozyme variant] | 3.03 | 2.1 |  | 2.89 | 3.86 | 15.7
AUUACCCUGGUCAUCGCUUGA [Fam2.1 aminoacylation ribozyme variant] | 3.08 | 2.09 |  | 2.25 |  | 10.7
AACAUUGCUAAUAGUCGCAAG [Fam3.1 aminoacylation ribozyme variant] | 2.67 | 2.5 |  |  |  | 2.9
AUUACACUCGUCAUCGAGUGA [Fam2.1 aminoacylation ribozyme variant] | 4.43 | 2.13 |  | 3.51 | 3.87 | 18
CAACACUUCAAGCAAUCGGGC [Fam1B.1 aminoacylation ribozyme variant] |  | 2.15 | 2.23 | 2.2 | 2.2 | 4.52
CCACACCUCAAGCAAUCGCUC [Fam1B.1 aminoacylation ribozyme variant] | 3.13 | 2.12 |  | 2.85 | 2.72 | 9.63
AUUCACCUGGGUCAUCGGGCG [Fam2.2 aminoacylation ribozyme variant] | 2.91 | 3.58 | 4.75 | 4.48 | 5.26 | 
CAGUUUGCUAAUAGUCGCGAG [Fam3.1 aminoacylation ribozyme variant] | 3.86 | 2.33 | 2.01 |  | 3.12 | 12.2
AUUCACCUAGGUCUUCGGGGG [Fam2.2 aminoacylation ribozyme variant] |  | 3.04 | 3.04 | 2.43 | 3.62 | 12
